B1: 149 bp endogenous mouse DNA (dsDNA)
DNA 1: GGACTGGGACTTCTAAAACAAGACCTTAGTTAGGTGTGGTGCTGCATGCCTTTAATCTCAGCAGTCTGGAGGCAGAGACAGGGAGGTCTCTATGAGTTCAAGGCCAGCCTAATCTACACAGTGAGTTCCAGGACAGTCAGGGCTATAGA
DNA 2: TCTATAGCCCTGACTGTCCTGGAACTCACTGTGTAGATTAGGCTGGCCTTGAACTCATAGAGACCTCCCTGTCTCTGCCTCCAGACTGCTGAGATTAAAGGCATGCAGCACCACACCTAACTAAGGTCTTGTTTTAGAAGTCCCAGTCC
B2: 25 bp DNA with Nr5a2 consensus motif (dsDNA)
DNA 1: GAGAGAGTCAAGGCCATGGCTCACT
DNA 2: AGTGAGCCATGGCCTTGACTCTCTC

What was measured:
[1] = target: NR5A2 wild type (Homo sapiens, UniProt O00482 1-541); assay: EMSA; EMSA: 20 mM Tris-HCl pH 7.5, 120 mM NaCl, 1 mM MgCl2, 10 uM ZnCl2, 1 mM DTT, 100 ug/ml BSA, room temperature, 30 min; 50 nM DNA or nucleosome; conditions: protein: recombinant; tags: N-terminal His6-TEV, His6 removed with TEV protease
[2] = target: T1, NR5A2 D159A (Homo sapiens, UniProt O00482 1-541, D159A); assay: EMSA; similar to wild type; EMSA: 20 mM Tris-HCl pH 7.5, 120 mM NaCl, 1 mM MgCl2, 10 uM ZnCl2, 1 mM DTT, 100 ug/ml BSA, room temperature, 30 min; 50 nM DNA or nucleosome; conditions: protein: recombinant; tags: N-terminal His6-TEV, His6 removed with TEV protease
[3] = target: T1, NR5A2 D159A; assay: EMSA; slightly less than wild type, not significant; EMSA: 20 mM Tris-HCl pH 7.5, 120 mM NaCl, 1 mM MgCl2, 10 uM ZnCl2, 1 mM DTT, 100 ug/ml BSA, room temperature, 30 min; 50 nM DNA or nucleosome; conditions: protein: recombinant; tags: N-terminal His6-TEV, His6 removed with TEV protease; blunt

Row | Binder | binding result [1] | binding result [2] | binding result [3]
1 | B1 | binds | binds | 
2 | B2 |  |  | binds
